The values below are quoted from earlier work in article PMC4567469.

The target of this series is Ran (Homo sapiens) (UniProt P62826).

Turning to “Leader protein (LE) (from UniProt P03304)”, the Kd was 3 nM.

The term Kd denotes the equilibrium constant for the complex coming apart.
